# Source: patent publication US20230120736A1, “ANTI-CD98 ANTIBODIES AND ANTIBODY DRUG CONJUGATES” (AbbVie Inc., priority 2016, published 2023)
# Residue numbers refer to the chain shown, from its start. Marks after values point to notes of the source that are not given here.
# B1: Ab10-CZ (conjugate)
# VH: EVQLVESGGGLVQPGRSLKLSCAASGFTFSDYAMAWVRQAPKKSLEWVATIIYDGRGTYCRDSVKGRFTISRDNAKSTLYLQMDSLRSEDTATYYCARQGDGTYHYWGYFDYWGQGVMVTVSS
# VL: DIVMTQSPSSLAVSAGETVTINCKSSQSLLSSGNQKNYLAWYQQKPGQSPKLLIYWASTRQSGVPDRFIGSGSGTDFTLTISSVQAEDLAIYYCQQYYDTPYTFGAGTKVDLK
# B2: Ab11-CZ (conjugate)
# VH: B1 VH with S44G, T50G, C60Y, H105Y
# VL: B1 VL with K24R, V110L, D111E
# B3: Ab12-CZ (conjugate)
# VH: B1 VH with S44G, T50S, C60Y, H105Y, Y109S
# VL: B1 VL with Y93H, V110L, D111E
# B4: Ab13-CZ (conjugate)
# VH: QVQLKESGPGLVQPSQTLSLTCTVSGFSLSSYGVIWVRQPPGKGLEWMGIIWANGNTNYNSALKSRLSISRDTSKSQVYLKMNSLQTEDTATYYCARHYYDGTHYYGYFDYWGQGVMVTVSS
# VL: DTVMTQTPSSQAVSAGEKVTMSCKSSQSLLYSENKKKYLAWYQQKPGQSPKLLIYWASTRESGVPDRFIGSGSGTDFTLTISSVQAEDLAVYYCQQYYNFPYTFGAGTKLELK
# B5: Ab14-CZ (conjugate)
# VH: EVKLQQSGDELVRPGASVKISCKASGYTFTSYSMHWVKERPGQGLEWIGAIFPIIGTTEYNQKFKGKATLTADKSSNTANMELSRLTSEDSAVYYCARVYLSYFDYWGQGVMVTVSS
# VL: DIQMTQSPSFLSASVGDRVTINCKASQNINKYLDWYQRKHGEAPKLLIYNTNNLQTGIPSRFSGSGSGTDYTLTISSLQPEDVATYFCLQHSSRYTFGAGTKLELK
# B6: Ab15-CZ (conjugate)
# VH: B1 VH with A33T, S44G, C60Y, G100S, H105Y
# VL: B1 VL with S31F, S82R, T100S, V110L, D111E
# B7: ChAb12-CZ (conjugate)
# VH: B1 VH with S44G, T50S, C60Y, H105Y, Y109S
# VL: B1 VL with Y93H, V110L, D111E
# B8: ChAb15-CZ (conjugate)
# VH: B1 VH with A33T, S44G, C60Y, G100S, H105Y
# VL: B1 VL with S31F, S82R, T100S, V110L, D111E
# Columns and labels:
# [1] = system: NCI-H146 (human small cell lung cancer) xenograft; experiment: NCI-H146 xenograft tumor growth inhibition; assay type: in vivo, mouse; settings: SCID-bg mice
# Experimental: The in vivo efficacy of anti-CD98 hybridoma mAb conjugates were tested using Ab3-CZ and Ab5-CZ as examples in NCI-H146 (human small cell lung cancer) xenograft model. […] The cells were cultured as monolayers in RPMI-1640 culture media (Invitrogen, Carlsbad, Calif.) that was supplemented with 10% Fetal Bovine Serum (FBS, Hyclone, Logan, Utah). To generate xenografts, 5×10^6 (NCI-H146) viable cells were inoculated subcutaneously into the right flank of immune deficient female SCID-bg mice (Charles River Laboratories, Wilmington, Mass.). The injection volume was 0.2 mL and composed of Matrigel (BD, Franklin Lakes, N.J.). Tumors were size matched at approximately 212 mm^3. Antibodies and conjugates were formulated in phosphate buffered saline, pH 7.2 and injected intraperitoneally. […] Therapy began within 24 hours after size matching of the tumors. Mice weighed approximately 21 g at the onset of therapy. Tumor volume was estimated two to three times weekly. Measurements of the length (L) and width (W) of the tumor were taken via electronic caliper and the volume was calculated according to the following equation: V=L×W^2/2. Mice were euthanized when tumor volume reached 3,000 mm^3 or skin ulcerations occurred. Eight mice were housed per cage. Food and water were available ad libitum. Mice were acclimated to the animal facilities for a period of at least one week prior to commencement of experiments. Animals were tested in the light phase of a 12-hour light: 12-hour dark schedule (lights on at 06:00 hours). Anti-CD98 conjugates (10 mg/kg) were administered as a single dose (QDx1) intraperitoneally. A human IgG control antibody (MSL109, a humanized IgG1 antibody that binds to cytomegalovirus (CMV) glycoprotein H) was used as a negative control agent.
# (§1) To refer to efficacy of therapeutic agents, parameters of amplitude (TGImax), durability (TGD) and response frequency (CR, PR, OR) of therapeutic response are used. The efficacy of inhibition of NCI-H146 xenografts growth with CD98-targeted ADCs is illustrated by Table 6, below. In the tables, to refer to efficacy, parameters of amplitude (TGImax) and durability (TGD) of therapeutic response are used. TGImax is the maximum tumor growth inhibition during the experiment. Tumor growth inhibition is calculated by 100*(1−Tv/Cv) where Tv and Cv are the mean tumor volumes of the treated and control groups, respectively. TGD or tumor growth delay is the extended time of a treated tumor needed to reach a volume of 1 cm^3 relative to the control group. TGD is calculated by 100*(Tt/Ct−1) where Tt and Ct are the median time periods to reach 1 cm^3 of the treated and control groups, respectively. Distribution of the response amplitude in a specific group is given by the frequency of complete responders (CR), partial responders (PR), and overall responders (OR). CR is the percentage of mice within a group with a tumor burden of 25 mm^3 for at least three measurements. PR is the percentage of mice within a group with a tumor burden larger than 25 mm^3 but less than one-half of the volume at onset of treatment for at least three measurements. OR is the sum of CR and PR.
# The in vivo anti-tumor efficacy of selected humanized anti-CD98 mAb conjugates were tested in NCI-H146 (human small cell lung cancer) xenograft model, as described in Example 6. Tumor growth inhibition was reported as TGImax in Table 28.
# [2] = Size exclusion chromatography, % aggregate fraction of ADC; assay type: physicochemical; settings: hybridoma mAb conjugated with synthon CZ, Method A
# Experimental: Size exclusion chromatography was performed using a Shodex KW802.5 column in 0.2M potassium phosphate pH 6.2 with 0.25 mM potassium chloride and 15% IPA at a flow rate of 0.75 ml/min. The peak area absorbance at 280 nm was determined for each of the high molecular weight and monomeric eluents by integration of the area under the curve. The % aggregate fraction of the conjugate sample was determined by dividing the peak area absorbance at 280 nm for the high molecular weight eluent by the sum of the peak area absorbances at […] of the high molecular weight and monomeric eluents multiplied by 100%.
# [3] = system: HCC38 breast cancer cell line; experiment: Growth inhibition assay (CellTiter-Glo); settings: read-out: ADC potency, IC50, HCC38, 4-days treatment, 3000 cells per well
# [4] = system: Jurkat acute T cell leukemia cell line; experiment: Growth inhibition assay (CellTiter-Glo); settings: read-out: ADC potency, IC50, Jurkat, 5-days treatment, 3000 cells per well
# [5] = system: EBC-1 (human lung squamous cell carcinoma) xenograft; experiment: EBC-1 xenograft tumor growth inhibition; assay type: in vivo, mouse; settings: SCID-bg mice; for Growth Inhibition TGImax / Response Frequency CR / Response Frequency PR / Tumor growth delay (TGD): 10 mg/kg IP QDx1; for Response Frequency OR: 10 mg/kg IP QDx1, sum of CR and PR
# Experimental: as §1, with “The efficacy of inhibition of NCI-H146 xenografts growth with CD98-targeted ADCs is illustrated by Table 6, below.” left out
# EBC-1 was obtained from the Japanese Collection of Research Bioresources Cell Bank (JCRB, Osaka, Japan) and were cultured using MEM culture media with 10% FBS. To generate xenografts, 5×10^6 EBC-1 viable cells were inoculated subcutaneously into the right flank of immune deficient female SCID-bg mice (Charles River Laboratories, Wilmington, Mass.). The injection volume was 0.2 mL and the inoculum was composed of 1:1 mixture of S-MEM and Matrigel. Tumors were size matched at approximately 200 mm^3. Antibodies and conjugates were formulated in phosphate buffered saline, pH 7.2 and injected intraperitoneally. […] Therapy began within 24 hours after size matching of the tumors. Mice weighed approximately 21-22 g at the onset of therapy. Tumor volume was estimated two to three times weekly. Measurements of the length (L) and width (W) of the tumor were taken via electronic caliper and the volume was calculated according to the following equation: V=L×W^2/2. Mice were euthanized when tumor volume reached 3,000 mm^3 or skin ulcerations occurred. Eight mice were housed per cage. Food and water were available ad libitum. Mice were acclimated to the animal facilities for a period of at least one week prior to commencement of experiments. Animals were tested in the light phase of a 12-hour light: 12-hour dark schedule (lights on at 06:00 hours). Anti-CD98 conjugates (10 mg/kg) were administered as a single dose (QDx1) intraperitoneally. A human IgG control antibody (AB095, a human IgG1 antibody recognizing tetanus toxoid See Larrick et al., 1992, Immunological Reviews 69-85) was used as a negative control agent.
# To refer to efficacy of therapeutic agents, parameters of amplitude (TGImax), durability (TGD) and response frequency (CR, PR, OR) of therapeutic response are used as described in the Example 6.
molecule,measurement,setting,value
"MSL109: ""a humanized IgG1 antibody that binds to cytomegalovirus (CMV) glycoprotein H"", ""negative control agent"" [reference compound]",Growth Inhibition TGD,[1]; 10 mg/kg IP QDx1,0%
same,Growth Inhibition TGImax,[1]; 10 mg/kg IP QDx1,0%
same,Response Frequency CR,[1]; 10 mg/kg IP QDx1,0%
same,Response Frequency PR,[1]; 10 mg/kg IP QDx1,0%
same,Response Frequency OR,"[1]; 10 mg/kg IP QDx1, sum of CR and PR",0%
B1,% Aggregates by SEC,[2],4.7%
same,IC50,[3],1160 pM
same,IC50,[4],148 pM
B2,% Aggregates by SEC,[2],4.2%
same,IC50,[3],1140 pM
same,IC50,[4],311 pM
B3,% Aggregates by SEC,[2],2.9%
same,IC50,[3],685 pM
same,IC50,[4],94 pM
B4,% Aggregates by SEC,[2],4.7%
same,IC50,[3],787 pM
same,IC50,[4],149 pM
B5,% Aggregates by SEC,[2],8.8%
same,IC50,[3],798 pM
same,IC50,[4],63 pM
B6,% Aggregates by SEC,[2],5.7%
same,IC50,[3],1060 pM
same,IC50,[4],76 pM
B7,Growth Inhibition TGImax,[5],76* %
same,Response Frequency CR,[5],0%
same,Response Frequency PR,[5],25%
same,Tumor growth delay (TGD),[5],74* %
same,Response Frequency OR,[5],25%
B8,Growth Inhibition TGImax,[5],70* %
same,Response Frequency CR,[5],0%
same,Response Frequency PR,[5],0%
same,Tumor growth delay (TGD),[5],74* %
same,Response Frequency OR,[5],0%
